The nature of the series: Light scattering of tirzepatide samples (apparent weight-average molecular weight, self-association). Format: physicochemical. Particulars: Mounjaro™ matrix (5 mM phosphate buffer, 140 mM NaCl, pH=7.0), 5 mg/mL to 30 mg/mL. As to the method: Tirzepatide formulations were prepared for light scattering measurements, with compositions detailed in Tables 1.a and 1.b. Light scattering data were collected using an ALV-CGS3 goniometer-based light scattering instrument (ALV-GmbH, Langen, Germany), which is a self-contained system with 22 mW 633 nm HeNe laser. Samples were filtered into disposable glass tubes using appropriate filters. Corresponding drug product placebos were used as scattering blanks. A single 15- or 30-second-long acquisition at 90-degree scattering angle was collected per sample, using the dynamic light scattering (DLS) mode. The resulting DLS auto-correlation functions were analyzed using intensity-weighted regularized size distributions, and shown to be monomodal before proceeding. The time-averaged scattering intensity values of the samples, placebos and toluene were used to calculate the excess Rayleigh ratios.
Apparent weight-average molecular weight (WAMW) values were calculated using formula (1):
[formula] • where K is an optical constant, c is the peptide mass concentration, and R is the excess Rayleigh ratio. A refractive index increment (dn/dc) of 0.185 mL/g was assumed.
To study the effect of preservatives, m-cresol, phenol or benzyl alcohol at selected concentrations were added to a standard Mounjaro™ composition. […]

Results on one substance are retold here after patent US20260130970A1, “PRESERVED GIP/GLP AGONIST COMPOSITIONS” (ELI LILLY AND COMPANY, priority 2022, published 2026).

Turning to tirzepatide, the self-association of tirzepatide entry is “monomer-trimer-hexamer equilibrium”.
